Measured values published in article PMC5395944, “Structural basis of inhibition of lipid-linked oligosaccharide flippase PglK by a conformational nanobody” (Scientific Reports, 2017).
Where “and” joins values, the source holds several entries; their conditions need not be identical. Equal values may be shown once.

Legend:
[1] = molecular target: PglK wild type (lipid-linked oligosaccharide flippase, ABC transporter) from Campylobacter jejuni (C. jejuni, UniProt Q0P9C4); experiment: cross-linking; 0.1% glutaraldehyde for 30 min, then high-mass MALDI mass spectrometry; PglK 18 μM and Nb 18 μM (1:2 PglK-homodimer:Nb), 10 mM HEPES pH 7.5, 100 mM NaCl, 0.016% LMNG; without nucleotides or with 5 mM MgCl2 and 5 mM ADP or ATP; settings: both partners purified
PglK-E510Q = molecular target: T1, PglK-E510Q (C. jejuni, UniProt Q0P9C4, E510Q); experiment: crystal structure; settings: both partners purified
T1 construct: also called PglK mutant E510Q; source: E. coli BL21-Gold (DE3), purified from membranes in detergent (NiNTA, size exclusion chromatography)

B1: Nb87 (inhibitory conformational nanobody against PglK) (VHH)
VHH: QVQLQESGGGLVQPGGSLRLSCAASGFTFSSYAMSWVRQAPGKGLEWVSAITSGGGSTSYSDAVKGRFTISRDNAKNTLYLQMNSLKPEDTAVYYCAKGYVVDFLDLAEYDSWGQGTQVTVSS
notes: source: E. coli WK6, periplasmic extract, purified (NiNTA)
- stoichiometry N [1]: 1 Nb87 per PglK homodimer and 2 Nb87 per PglK homodimer
- stoichiometry N (PglK-E510Q): 1 Nb87 per PglK homodimer
